According to patent US20200199177:

Assays:
(AcDEVD)K-pNA = test system: T1, (AcDEVD)K-pNA
T1 sequence: DEVD

(AcDVED)K-pNA = test system: T2, (AcDVED)K-pNA
T2 sequence: DVED

AcDEVD-pNA = test system: T3, AcDEVD-pNA
T3 sequence: DEVD

(AcIEPD)K-pNA = test system: T4, (AcIEPD)K-pNA
T4 sequence: IEPD

AcIEPD-pNA = test system: T5, AcIEPD-pNA
T5 sequence: IEPD

(AcAAF)K-pNA = test system: T6, (AcAAF)K-pNA
T6 sequence: AAFK

CAAK(F)-diamino-pNA = test system: T7, CAAK(F)-diamino-pNA
T7 sequence: CAAK

(AcFG)K-pNA [1] = test system: T8, (AcFG)K-pNA
T8 sequence: FGK

(AcFG)K-pNA [2] = biological target: T9, (AcFG)K-pNA (not fully specified)
T9 chain: FGK

## Caspase 3
(AcDEVD)K-pNA
  absorbance increase at 405 nm (pNA release), 125 uM substrate first with caspase-3 then with trypsin, over 60 minutes: 0.1±0.006 AU
  pNA release relative to the commercial substrate AcDEVD-pNA: pNA release from our substrate corresponded to 83% of the release from the commercial substrate
(AcDVED)K-pNA
  pNA release with trypsin and caspase 3: no pNA release occurred when (AcDVED)K-pNA (SEQ ID NO: 2) was incubated with trypsin and caspase 3
AcDEVD-pNA
  pNA release on caspase 3 digestion: both substrates are digested efficiently by caspase 3

## Caspase 8
(AcDEVD)K-pNA
  absorbance increase at 405 nm, 500 uM substrate with caspase 8 for 24 hours before adding trypsin: did not result in a significant absorbance increase
(AcIEPD)K-pNA
  absorbance increase at 405 nm (pNA release) with caspase 8 and trypsin: little to no absorbance increase in the presence of caspase 8 and trypsin
AcDEVD-pNA
  caspase 8 activity on single enzyme substrate (absorbance, pNA release): cleaved as expected
AcIEPD-pNA
  caspase 8 activity on single enzyme substrate (absorbance, pNA release): cleaved as expected

## Chymotrypsin
(AcAAF)K-pNA
  absorbance increase at 405 nm (pNA release), 50 uM substrate with chymotrypsin and trypsin, after five hours: 0.039±0.003 AU
  absorbance increase at 405 nm (pNA release), 100 uM substrate with chymotrypsin and trypsin: 0.070±0.002 AU
  absorbance increase at 405 nm (pNA release), 200 uM substrate with chymotrypsin and trypsin: 0.147±0.002 AU
CAAK(F)-diamino-pNA
  pNA release (absorbance at 405 nm), 2 mM peptide with trypsin and/or chymotrypsin, 90 minutes at 37 C: 55% of the theoretical pNA was released after 90 minutes of incubation

## Trypsin
(AcAAF)K-pNA
  absorbance increase at 405 nm (pNA release), 100 uM peptide with trypsin only: a minimal absorbance increase (0.016±0.002 AU) was observed when 100 µM peptide was incubated with trypsin only
(AcDEVD)K-pNA
  absorbance increase at 405 nm (pNA release) with trypsin only: In the presence of trypsin or caspase 3 only, no absorbance increase was observed as expected
(AcFG)K-pNA [1]
  pNA release (absorbance at 405 nm) with trypsin only: no absorbance increase was observed when the substrate was incubated with each enzyme separately

B1: Papain (protein)
chain: IPEYVDWRQKGAVTPVKNQGSCGSCWAFSAVVTIEGIIKIRTGNLNEYSEQELLDCDRRSYGCNGGYPWSALQLVAQYGIHYRNTYPYEGVQRYCRSREKGPYAAKTDGVRQVQPYNEGALLYSIANQPVSVVLEAAGKDFQLYRGGIFVGPCGNKVDHAVAAVGYGPNYILIKNSWGTGWGENGYIRIKRGTGNSYGVCGLYTSSFYPVKN
(AcFG)K-pNA [2]
  pNA release (absorbance at 405 nm) with papain and trypsin: In the presence of papain and trypsin, pNA release from the substrate was observed to be substrate dependent
